The source of these data is US20190276531A1 (SYMPHOGEN A S, published 2019).

Where a chain is given by its changes, count along the chain named.

The target of assay [1] is T1, monomeric human TIM-3 ECD antigen (Acro Biosystems) (human, UniProt Q8TDQ0 22-202).
T1 construct: Bought; also called soluble monovalent TIM-3 antigen (Acro Biosystems, China)
The experiment in a line: SPR (IBIS MX96); antibody captured on anti-human IgG Fc sensor, monomeric human TIM-3 ECD injected 2-100 nM; 1:1 Langmuir fit.

In assay [2] the target is T2, R-PE-labeled human TIM-3-Fc chimera protein (R&D Systems) (human, UniProt Q8TDQ0 22-200, conjugated to R-phycoerythrin (R-PE), sites not stated).
T2 construct: Bought; also called TIM-3-PE; soluble TIM-3-Fc; Fc part of the bought chimera not given, not described
Description: flow cytometry competition: R-PE-labelled TIM-3-Fc pre-mixed with titrated antibody, then binding to phosphatidylserine-positive apoptotic Jurkat cells (MFI); blocked ligand: phosphatidylserine; unit taken from the axis log(Concentration) µg/ml. A general note: Flow cytometry measures light scatter and fluorescence of single cells or particles in a stream.

In assay [3] the target is T3, human TIM-3 Fc fusion antigen (Sino Biologicals) (human, UniProt Q8TDQ0 22-202).
T3 construct: Bought; also called human TIM-3 ECD; not shown: Fc part of the bought fusion protein, not described
The experiment in a line: ELISA; TIM-3 Fc fusion coated at 1 µg/ml, antibody titrated 2-fold from 1000 nM, HRP secondary. (In general: ELISA stands for enzyme-linked immunosorbent assay.)

The target of assay [4] is T4, cynomolgus TIM-3 ECD fused C-terminally to human IgG1 Fc (made in-house, ExpiCHO) (cynomolgus monkey (Macaca …)).
T4 construct: whole entry named
T4 chain: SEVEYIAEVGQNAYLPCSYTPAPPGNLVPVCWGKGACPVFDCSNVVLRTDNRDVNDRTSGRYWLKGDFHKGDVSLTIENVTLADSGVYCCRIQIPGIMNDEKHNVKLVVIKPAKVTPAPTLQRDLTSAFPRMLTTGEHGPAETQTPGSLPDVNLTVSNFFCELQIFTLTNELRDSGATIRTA
The experiment in a line: SPR (IBIS MX96); TIM-3 ECD-Fc captured on anti-human IgG Fc sensor, Fab injected 1-100 nM; 1:1 Langmuir fit.

B1: antibody 15086.17145 (antibody, human IgG2, kappa)
heavy: QVQLQESGPGLVKPSQTLSLTCTVSGGSISSGGYYWSWTRQHPGMGLEWIGYISYSGSIYYTPSLKSRLTISVDTSKNQFSLKLSSVTAADTAVYYCASLDSWGSNRDYWGQGTLVTVSSASTKGPSVFPLAPCSRSTSESTAALGCLVKDYFPEPVTVSWNSGALTSGVHTFPAVLQSSGLYSLSSVVTVPSSNFGTQTYTCNVDHKPSNTKVDKTVERKCCVECPPCPAPPVAGPSVFLFPPKPKDTLMISRTPEVTCVVVDVSHEDPEVQFNWYVDGVEVHNAKTKPREEQFNSTFRVVSVLTVVHQDWLNGKEYKCKVSNKGLPAPIEKTISKTKGQPREPQVYTLPPSREEMTKNQVSLTCLVKGFYPSDIAVEWESNGQPENNYKTTPPMLDSDGSFFLYSKLTVDKSRWQQGNVFSCSVMHEALHNHYTQKSLSLSPGK
light: not shown
In general, Kd refers to the concentration at which binding is half-saturated. For orientation: IC50 means the point on the concentration scale where inhibition reaches its midpoint. Usually EC50 stands for the concentration at which the effect is half-maximal. In assay [1], B1 gave an equilibrium dissociation constant (Kd) of 19 nM. The half-inhibitory concentration (IC50) in assay [2] was 0.651 µg/mL. In assay [3], this molecule gave an EC50 of 0.125 nM.

B2: antibody 19416 (antibody, V domains shown)
VH: QVQLVESGPGLVKPSQTLSLTCTVSGGSINSGGYYWSWIRQHPGKGLEWIGYIYYSGSIYYNPSLRSRLTISVDTSKNQFSLKLSSVTAADTAVYYCATPYYYGSGSYGDYWGQGTLVTVSS
VL: DIQMTQSPATLSLSPGERATLSCRASQSVNNYLAWYQQKPGQAPRLLIYDASNRATGIPARFSGSGSGTDFTLTISSLEPEDFAVYYCQQRSNWPITFGQGTRLEIK
On to B2, for which the midpoint of the response in assay [3], the EC50, lay at 0.2 nM.

B3: antibody 20362 (antibody, V domains shown)
VH: QVTLKESGPGLVKPSQTLSLTCTVSGGSISSGGHYWSWIRQHPGKGLEWIGYISYSGSTYYNPSLKSRLTISVDTSKNQFSLKLSSVTAADTAVYYCATAYYDILTGYPFDYWGQGTLVTVSS
VL: B2 VL with D1E, Q3V, N30S, N31S, N53D
Molecule B3 showed a half-maximal effective concentration (EC50) in assay [3] of 0.26 nM.

B4: antibody 19568 (antibody, V domains shown)
VH: QMQLQESGPGLVKPSQTLSLTCTVSGGSISSVGYYWNWIRQHPGKGLEFIGYIYYSGSIYYNPSLKSRVTISVDTSKNQFSLKLSSVTAADTALYYCASVGIVGASYFEYWGQGTLVTVSS
VL: B2 VL with D1E, Q3V, N30S, N31S
B4 showed a 50% effective concentration (EC50) in assay [3] of 0.38 nM.

B5: antibody 20621 (antibody, V domains shown)
VH: B3 VH with T3Q, K5Q, E6Q, H34Y, T59I, L69V, A90T, I104L
VL: B2 VL with D1E, Q3V, N30S, N31S
In the case of B5, the EC50 in assay [3] was determined as 0.22 nM.

B6: Fab 20131 (Fab, V domains shown)
VH: QVQLQQSGGGLVQPGGSLRLSCAASGFTLSSYAMSWVRQAPGKGLEWVSGISGSGGSTYNADSVKGRFTISRDNSKNTLFLQMNSLRAEDTAVYYCAKIFGSYYFDYWGQGTLVTVSS
VL: not shown
notes: not shown: cleavage site not s
For B6, binding in assay [4] was put at a Kd of 22 nM.

B7: antibody 19324 (antibody, V domains shown)
VH: B6 VH with V2M, L29V, P41L, N60Y, F80Y, F100V, S102A, Y103T, Y104H
VL: not shown
In assay [3], B7 gave a 50% effective concentration (EC50) of 0.73 nM.

B8: antibody 20300 (antibody, V domains shown)
VH: QVQLQQSGGGLVHPGGSLRLSCAASGFTVDTYAMTWVRQAPGKGLEWVSGISGSGGSTYYADSVKGRFTISRDNSKNTLYLQMNSLRDEDTAVYYCAKIVGVTHFDYWGQGTLVTVSS
VL: not shown
Consider B8, for which, in assay [3], the 50% effective concentration (EC50) is 1.13 nM.

B9: antibody 20185 (antibody, V domains shown)
VH: B6 VH with Q5V, Q6E, Q13R, A24V, L29F, F80Y
VL: not shown
Take B9: the EC50 in assay [3] was 0.17 nM.
